# From the nanobody polyreactivity screen of Harvey et al. (2022)
# Assay: yeast display, Sf9 membrane polyspecificity reagent, FACS + sequencing; frameworks hold sequencing errors
# Procedure, shortened: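 Galactose induction of a Saccharomyces cerevisiae BJ5465 synthetic nanobody display library ran 36–48 hours. The cells were then stained for 1 hour at 4 °C with 10% biotinylated, detergent-solubilized Sf9 membrane reagent, pulled down on streptavidin microbeads and FACS-sorted into low and high (top ~1%) gates on expression and reagent-binding fluorescence. Labels for polyreactivity follow the gate of origin.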
row,Sequence,polyreactivity (PSR sort gate)
1,QVQLVESGGGLVQAGGSLRLSCAASGGTLKYYAMGWYRQAPGKEREVVATISSRGGSTYYADSVKGRFTISRDNAKNTVYLQMNSLKPEDTAVYYCARRYWVQSRYPEMDYWGQGTQVTVSS,high polyreactivity
2,QVQLVESGGGLVQAGGSLRLSCAASGGTLVPNAMGWYRPAPGKERELVAGISGSGGSTYYADSVKGRFTISRDNAKNTVYLQMNSLKPEDTAVYYCNADRYVPYYEPEMDYWGQGTQVTVSS,low polyreactivity
3,QVQLVESGGGLVQAGGSLRLSCAASGGTVTYNAMGWYRQAPGKERELVAAITNGGGSTYYADSVKGRFTISRDYAKNTVYLQMNSLKPEDTAVYYCAARWWYYYTEYDYWGQGTQVTVSS,low polyreactivity
4,QVQLVESGGGLVQAGGSLRLSCAASGHIFFYYTMGWYRQAPGKERELVAGITIGGSTNYADSVKGRFTISRDNAKNTVYLQMNSLKPEDSAVYYCNVVKYVYIYSYWEYYYWGQGTQVTVSS,low polyreactivity
5,QVQLVESGGGLVQAGGSLRLSCAASGHIFSYYAMGWYRQAPGKERELVAAISSSGSSTYYADSVKGRFTISRDNAKNTVYLQMNSLKPEDTAVYYCNAPYIAWYDGDYWGQGTQVTVSS,low polyreactivity
6,QVQLVESGGGLVQAGGSLRLSCAASGHIFTRNSMGWYRQAPGKERELVAAISRTGGSTYYADSVKGRFTISRDNAKNTVYLQMNSLKPEDTAVYDCAKRRQASEDYWGQGTQVTVSS,high polyreactivity
7,QVQLVESGGGLVQAGGSLRLSCAASGHILFKYTMGWYRQAPGKERELVAAISRSGGTTYYADSVKGRFTISRDNAKNTVYLQMNSLKPEDTAVYYCAARVTPGRNGGGYWGQGTQVTVSS,high polyreactivity
8,QVQLVESGGGLVQAGGSLRLSCAASGHIYFYYTMGWYRQAPGKERDLVAGITIGGSTNYADSVKGRFTISRDNAKNTVYLQMNSLKPEDTAVYYCNVVKYVYIYSYWEYYYWGQGTQVTVSS,low polyreactivity
9,QVQLVESGGGLVQAGGSLRLSCAASGHIYVRYAMGWYRQAPGKERELVAAITSGGSTYYADSVKGRFTISRDNAKNTVYLQMNSLKPEDTAVYYCAARKQQYRFTHDYWGQGTQVTVSS,high polyreactivity
10,QVQLVESGGGLVQAGGSLRLSCAASGIAYTYNAMGWYRQAPGKERELVASISRTGGSTRYADSVKGRFTISRDNAKNTFYLQMNSLKPEDTAVYYCAALSWRYVKYRFDYWGQGTQVTVSS,high polyreactivity
11,QVQLVESGGGLVQAGGSLRLSCAASGIFIDSNAMGWNRQAPGKERELVAAITSGGSTKYADSVKGRFTISRDTAKNTVYLQMNSLKPVDTAVYYCNAGPAVRSAYSTPYYDYWGLGTQVTVSS,low polyreactivity
12,QVQLVESGGGLVQAGGSLRLSCAASGIFLVYAMGWYRQAPGKERELVAAIRSDASTNYADSVKWRFTISRDNAKKTVYLQMNILKPEDSAVYYCNTAQLVSDEFDYWGQGTQVTVSS,low polyreactivity
13,QVQLVESGGGLVQAGGSLRLSCAASGIFRSNTMGWYRQAPGKERELVATISRRSGSTYYADSVKGRFTISRDNAKNTVYLQMNSLKPEDTAVYYCAAAAPRRKYDYWGQGTQVTVSS,high polyreactivity
14,QVQLVESGGGLVQAGGSLRLSCAASGIFSHYALGWYRQAPGKERELVAAISSSGGRTYYADSVKGRFTISRDNAKNTVYLQMNSLKPEDTAVYYCAAPWRSSPYHFYYWGQGTQVTVSS,high polyreactivity
15,QVQLVESGGGLVQAGGSLRLSCAASGIFSRYAMGWYIQAPGKERELVAAISSGDSTNYADSVKGRFTISRDNAKNTVYLQMNSLKPEDTAVYYCATERSHLATGQGYYYVQTFYYWGQGTQVTVSS,low polyreactivity
16,QVQLVESGGGLVQAGGSLRLSCAASGIFSYYAMGWYRQAPGKERELVAAISSSGGSTYYADSVKGRFTISRDNAKNTVYLQMNSLKPEDTAVYYCNVRNYYNDYYYWGQGTQVTVSS,high polyreactivity

row,Sequence,polyreactivity (PSR sort gate)
1,QVQLVESGGGLVQAGGSLRLSCAASGIFTRYVMGWYRQAPGKERELVAAITANGGRTYYADSVKGRFTISRDNAKNTVYLQMNSLKPEDTAVYYCNADWRWKWSSRGGYWGQGTQVTVSS,high polyreactivity
2,QVQLVESGGGLVQAGGSLRLSCAASGIFVGNAMGWYRQAPGKERELVAAITGDGDSTYYADSVKGRFTISRDNAKNTVYLQMNSLKPEDNAVYYCNTVFDTIVDKYYYWGQGTQVTVSS,low polyreactivity
3,QVQLVESGGGLVQAGGSLRLSCAASGIFVYYAMGWYRQAPGKERELVAAISSTGTSTYYADSVKGRFTISRDNAKNTVYLQMNSLKPEDTAVYYCAARGYAKRGYWGQGTQVTVSS,high polyreactivity
4,QVQLVESGGGLVQAGGSLRLSCAASGIHFRSNAMGWYRQAPGKERELVAAISGRGGRTYYADSVKGRFTISRDNAKNTVYLQMNSLKPEDTAVYYCARESYLGATYPKAYGPYYYWGQGTQVTVSS,high polyreactivity
5,QVQLVESGGGLVQAGGSLRLSCAASGIICWWNTMGWYRQAPGKERELVATITRGGSTYYADSVKGRFTISRDNAKNTVYLQMNSLKPEDTAVYYCNAVQYKYLAKSYDYWGQGTQVTVSS,low polyreactivity
6,QVQLVESGGGLVQAGGSLRLSCAASGIIFADNDMGWYRQAPVKERELVATISSAGNTNYADSVKGRFTISRDNAKNTVYLQMNSLKPEDTAVYYCAVVYYIPLLPPWIYEYDYWGQGTQVTVSS,low polyreactivity
7,QVQLVESGGGLVQAGGSLRLSCAASGIIFADYAMGWYIQAPGKERELVAAISTSGGSTYYADSVKGRFTISRDNAKNPVYLQMNSLKPEDTAVYYCNAVYYTSYSGYQFVYEYDYWGQGTQVTVSS,low polyreactivity
8,QVQLVESGGGLVQAGGSLRLSCAASGIIFALNAMGWYRQAPGKERELVATIDSTSGSTYYADSVKGRFTISRDNAKNTVYLQMNSLKPEDTAVYYCAVVHAQSAPMDYWGQGTQVTVSS,low polyreactivity
9,QVQLVESGGGLVQAGGSLRLSCAASGIIFAQYTMGWYRQAPGKERELVAAINRNGGSTYYADSVKGRFTISRDNAKNTVYLQMNSLKPEDNAVYYCIADALGFRFDYWGQGTQVTVSS,low polyreactivity
10,QVQLVESGGGLVQAGGSLRLSCAASGIIFARNAMGWYRQAPGKERELVATISRNGGRTYYADSVKGRFTISRDNAKNTVYLQMNSLKPEDTAVYYCARPYYGSWHSYGVDYWGQGTQVTVSS,high polyreactivity
11,QVQLVESGGGLVQAGGSLRLSCAASGIIFARYAMGWYRQAPGKERELVAAISNRGTSTYYADSVKGRFTISRDNAKNTVYLQMNSLKPEDTAVYYCKRVKDGYWGQGTQVTVSS,high polyreactivity
12,QVQLVESGGGLVQAGGSLRLSCAASGIIFARYAMGWYRQAPGKERELVAAITRRAVSTYYADSVKGRFTISRDNAKNTVYLQMNSLKPEDTAVYYCAADRASYFTYAYGYWGQGTQVTVSS,high polyreactivity
13,QVQLVESGGGLVQAGGSLRLSCAASGIIFAYNAMGWYRQAPGKERELVAAISVIGGTTYYADSVKGRFTISRDNAKNTVYLQMHSLKPEDTAVYYCAVDSVQYGGGYERLHELYYWGQGTQVTVSS,low polyreactivity
14,QVQLVESGGGLVQAGGSLRLSCAASGIIFAYNAMGWYRQAPGNERELVAAITSGTSTHYADSVKGRFTISRDNAKNTVYLQMNSLKPEDTAVYYCAKVYSYFNPRTYKPSFAGSDYWGQGTQVTVSS,low polyreactivity
15,QVQLVESGGGLVQAGGSLRLSCAASGIIFAYYAMGWYRQAPGKETELVAAINRSGGTTYYADSVKGRFTISRDNAKNTVYLQMNSLKPEDTAVYYCNALTTWRYRYDYWGQGTQVTVSS,high polyreactivity
16,QVQLVESGGGLVQAGGSLRLSCAASGIIFAYYTMGWYRQAPGKLRELVAAISWNGGRTYYADSVKGRFTISRDNAKNTVYLQINSLKPEDTAVYYCAARDASSFLRSYYWGQGTQVTVSS,high polyreactivity
